Laboratory results published in paper PMC10019781, “Structure and function of Plasmodium actin II in the parasite mosquito stages” (PLOS Pathogens, 2023).

What was measured:
[1] = target: the molecule itself; assay: dynamic light scattering; polymerizing conditions, without JAS; 1.3 mg/ml, 70 ul, 4°C
[2] = target: the molecule itself; assay: dynamic light scattering; non-polymerizing conditions; 1.3 mg/ml, 70 ul, 4°C

Protein | stoichiometry N [1] | stoichiometry N [2]
Plasmodium actin I (natural protein, actin I of Plasmodium; its cited filament structures are of P. falciparum actin I; in the pyrene assays a mixture of pyrene-labelled and unlabelled actin was used; also called F-actin I) not shown | 2 | 
Plasmodium falciparum actin II (natural protein, methyl-histidine at H73 (around 90% of actin II when expressed in insect cells), actin II of Plasmodium falciparum, PlasmoDB PF3D7_1412500; gene synthesized and codon-optimized for insect cells; In the pyrene assays (critical concentration, polymerization) a mixture of pyrene-labelled and unlabelled actin (ratio 1:3) was used; The first four N-terminal residues are not resolved in the filament maps; also called PfActII; F-actin II; source: Sf9 (Spodoptera frugiperda) cells, …) not shown |  | 2
